Key:
trx1_yeast TRX1 = molecular target: T1, trx1_yeast TRX1 (UniProt P22217)
T1 sequence: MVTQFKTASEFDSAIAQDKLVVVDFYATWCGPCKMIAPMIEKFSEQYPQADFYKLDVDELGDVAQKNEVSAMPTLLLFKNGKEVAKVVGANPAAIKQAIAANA

trx2_yeast TRX2 = molecular target: T2, trx2_yeast TRX2 (UniProt P22803)
T2 sequence: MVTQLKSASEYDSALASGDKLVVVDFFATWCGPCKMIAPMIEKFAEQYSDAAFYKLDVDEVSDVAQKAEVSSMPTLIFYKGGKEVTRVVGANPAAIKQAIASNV

effect of a mutation on the interaction (trx1_yeast TRX1): decreasing interaction
effect of a mutation on the interaction (trx2_yeast TRX2): decreasing interaction
Substance: Phosphoadenosine phosphosulfate reductase (Saccharomyces cerevisiae) (from UniProt P18408) C245S
